Article PMC7069705

Molecular target: APC (full-length; APC-TMR when labeled) (Mus musculus, UniProt Q61315 1-2845)
Experiment: single-molecule TIRF-M co-diffusion on microtubules

APC (full-length; APC-TMR when labeled), sequence (Q61315 whole entry, the tested form may be a part): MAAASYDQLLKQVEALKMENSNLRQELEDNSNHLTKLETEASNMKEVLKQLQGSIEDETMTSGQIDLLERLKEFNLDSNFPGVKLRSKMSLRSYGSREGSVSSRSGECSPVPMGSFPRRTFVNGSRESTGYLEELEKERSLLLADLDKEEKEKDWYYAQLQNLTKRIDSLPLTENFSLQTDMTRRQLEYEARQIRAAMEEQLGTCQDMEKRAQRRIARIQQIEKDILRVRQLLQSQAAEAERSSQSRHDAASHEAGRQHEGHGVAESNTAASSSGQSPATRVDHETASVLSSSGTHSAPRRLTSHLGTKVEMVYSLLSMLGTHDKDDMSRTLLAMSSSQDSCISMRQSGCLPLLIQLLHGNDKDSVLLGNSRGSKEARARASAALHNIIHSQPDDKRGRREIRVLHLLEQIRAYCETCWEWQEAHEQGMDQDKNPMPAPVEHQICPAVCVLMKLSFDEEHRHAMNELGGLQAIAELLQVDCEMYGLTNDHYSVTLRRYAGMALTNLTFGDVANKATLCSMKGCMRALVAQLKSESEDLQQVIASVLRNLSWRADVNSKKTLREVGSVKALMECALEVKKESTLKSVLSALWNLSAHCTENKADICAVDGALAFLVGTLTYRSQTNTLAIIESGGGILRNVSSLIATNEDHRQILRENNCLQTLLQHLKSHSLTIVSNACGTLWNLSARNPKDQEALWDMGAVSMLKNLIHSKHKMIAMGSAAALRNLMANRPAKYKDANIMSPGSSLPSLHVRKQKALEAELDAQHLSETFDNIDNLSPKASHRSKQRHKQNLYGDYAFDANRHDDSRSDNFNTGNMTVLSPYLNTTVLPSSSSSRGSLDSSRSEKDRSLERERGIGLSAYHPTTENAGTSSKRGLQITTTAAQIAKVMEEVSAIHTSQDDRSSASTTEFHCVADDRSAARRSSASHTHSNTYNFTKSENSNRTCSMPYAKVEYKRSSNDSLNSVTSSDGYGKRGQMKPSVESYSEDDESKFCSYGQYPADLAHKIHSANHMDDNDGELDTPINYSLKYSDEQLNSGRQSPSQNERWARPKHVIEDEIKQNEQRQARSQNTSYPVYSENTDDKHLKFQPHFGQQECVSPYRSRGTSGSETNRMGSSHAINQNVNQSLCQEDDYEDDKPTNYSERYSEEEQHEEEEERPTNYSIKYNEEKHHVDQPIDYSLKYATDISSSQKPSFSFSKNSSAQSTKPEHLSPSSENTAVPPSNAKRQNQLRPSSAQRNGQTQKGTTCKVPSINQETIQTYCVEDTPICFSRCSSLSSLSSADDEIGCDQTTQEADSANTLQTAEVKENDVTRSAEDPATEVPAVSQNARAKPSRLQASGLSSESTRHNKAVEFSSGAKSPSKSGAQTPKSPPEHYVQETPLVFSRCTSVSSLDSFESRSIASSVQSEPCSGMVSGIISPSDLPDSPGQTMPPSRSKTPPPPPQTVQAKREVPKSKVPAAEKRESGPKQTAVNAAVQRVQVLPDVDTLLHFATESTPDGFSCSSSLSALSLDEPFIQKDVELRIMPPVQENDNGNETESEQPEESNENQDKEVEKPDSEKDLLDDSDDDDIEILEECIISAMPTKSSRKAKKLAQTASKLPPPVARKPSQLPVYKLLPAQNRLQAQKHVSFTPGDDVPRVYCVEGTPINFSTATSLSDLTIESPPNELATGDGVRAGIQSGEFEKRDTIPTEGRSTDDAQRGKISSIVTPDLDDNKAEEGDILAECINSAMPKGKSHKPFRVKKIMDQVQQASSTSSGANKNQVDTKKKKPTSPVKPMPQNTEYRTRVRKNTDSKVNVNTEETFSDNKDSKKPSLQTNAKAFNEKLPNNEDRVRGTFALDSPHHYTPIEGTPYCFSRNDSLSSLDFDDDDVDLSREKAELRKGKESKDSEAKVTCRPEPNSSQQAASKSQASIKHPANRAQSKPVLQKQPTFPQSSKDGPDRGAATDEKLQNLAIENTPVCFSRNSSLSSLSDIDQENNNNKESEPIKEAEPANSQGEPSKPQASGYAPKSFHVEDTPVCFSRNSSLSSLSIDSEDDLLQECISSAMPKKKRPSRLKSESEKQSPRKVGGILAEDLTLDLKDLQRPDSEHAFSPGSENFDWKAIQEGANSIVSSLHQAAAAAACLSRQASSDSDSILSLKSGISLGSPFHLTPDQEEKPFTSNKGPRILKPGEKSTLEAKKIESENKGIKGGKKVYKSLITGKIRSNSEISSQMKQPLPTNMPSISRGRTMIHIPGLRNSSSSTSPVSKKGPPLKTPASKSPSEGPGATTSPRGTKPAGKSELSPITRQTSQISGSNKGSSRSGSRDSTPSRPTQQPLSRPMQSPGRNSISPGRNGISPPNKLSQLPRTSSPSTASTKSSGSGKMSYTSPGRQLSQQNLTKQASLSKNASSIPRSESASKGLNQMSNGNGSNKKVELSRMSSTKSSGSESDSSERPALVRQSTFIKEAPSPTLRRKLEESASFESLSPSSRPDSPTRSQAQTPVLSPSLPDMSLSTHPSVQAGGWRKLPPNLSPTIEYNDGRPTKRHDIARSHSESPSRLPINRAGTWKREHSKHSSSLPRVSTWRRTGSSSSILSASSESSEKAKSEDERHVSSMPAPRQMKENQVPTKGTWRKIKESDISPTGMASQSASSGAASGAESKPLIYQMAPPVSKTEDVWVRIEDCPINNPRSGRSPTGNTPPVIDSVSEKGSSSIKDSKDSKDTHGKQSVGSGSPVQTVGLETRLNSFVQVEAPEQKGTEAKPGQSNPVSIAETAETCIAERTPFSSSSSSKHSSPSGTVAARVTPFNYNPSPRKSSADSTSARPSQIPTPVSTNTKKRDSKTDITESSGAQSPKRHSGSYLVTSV

B1: β2Btubwt (ssRNA)
RNA: GUUCCCCAGGCCAAGCAGGUUAGGGAAAGCUGAGAUGAAAGGAGGGGGUGGGGGGGCUUAAUCUGUGAAAAUACCUUGGCAGUUGAA
  binding result: binds
